One block for each binder: values may come before it.
Assays:
[1] = molecular target: T1, cynomolgus TfR overexpressed on CHO cells (cynomolgus monkey, UniProt Q5RDH6 1-760 (Pongo abelii entry)); assay: flow cytometry on CHO cells overexpressing cynomolgus TfR (CHO-cynoTfR), VHH detected with anti-FLAG-iFluor647; median Flag-i647 intensity in total GFP cells
T1 construct: construct is TfR followed by an HA tag and IRES-GFP; also called cynomolgus monkey TfR1; NHP TfR
T1 chain: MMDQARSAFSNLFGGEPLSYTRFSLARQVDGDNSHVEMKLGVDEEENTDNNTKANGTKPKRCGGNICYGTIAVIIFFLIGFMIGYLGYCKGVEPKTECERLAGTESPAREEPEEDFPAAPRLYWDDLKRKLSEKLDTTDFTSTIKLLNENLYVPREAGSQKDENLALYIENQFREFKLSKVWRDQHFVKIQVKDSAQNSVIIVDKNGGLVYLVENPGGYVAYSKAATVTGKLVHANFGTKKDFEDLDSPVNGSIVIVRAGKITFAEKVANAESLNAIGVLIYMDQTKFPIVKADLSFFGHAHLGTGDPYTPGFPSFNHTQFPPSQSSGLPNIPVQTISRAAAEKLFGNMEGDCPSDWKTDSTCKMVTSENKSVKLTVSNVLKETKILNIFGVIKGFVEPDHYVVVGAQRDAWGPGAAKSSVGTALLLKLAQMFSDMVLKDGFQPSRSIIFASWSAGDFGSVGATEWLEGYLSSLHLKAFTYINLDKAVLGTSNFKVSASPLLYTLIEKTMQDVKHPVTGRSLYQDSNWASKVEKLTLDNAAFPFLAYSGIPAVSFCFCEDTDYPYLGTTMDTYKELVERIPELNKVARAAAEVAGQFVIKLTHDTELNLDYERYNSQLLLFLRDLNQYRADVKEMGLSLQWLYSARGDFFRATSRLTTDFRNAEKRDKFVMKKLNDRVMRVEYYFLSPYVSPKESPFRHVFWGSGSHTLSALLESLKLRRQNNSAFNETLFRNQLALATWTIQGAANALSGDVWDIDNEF
Procedure: (§1) Output libraries were screened with flow cytometry to find binders to human TfR overexpressing cells (FIG. 1A). […] Binding kinetics to recombinant human and cynomolgus TfR were further characterized with Surface Plasmon Resonance (SPR).
(§2) Periplasmic extracts diluted 1:10 in PBS 2% FBS, or a dilution range of different VHH or bispecific antibody concentrations prepared in PBS 2% FBS, were incubated with 0.1 million CHO cells overexpressing either the human, cynomolgus or mouse TfR for 30 min at 4° C. As control for background binding, periplasmic extracts, VHHs or bispecific antibodies were also incubated with 0.1 million CHO cells overexpressing GFP. Binding of VHHs was next resolved by a second step 30 min incubation at 4° C. with an anti-FLAG-iFluor647 antibody (A01811, Genscript) diluted 1:500 for screening and 1:250 for validation assays, or with anti-human IgG Fc-Alexa Fluor647 antibody (410714, BioLegend) diluted 1:200. […] Cells were fixed with 4% paraformaldehyde before being analyzed. Flp-In™-CHO™ cells used as unstained control and single stain controls were used to determine the cut-off point between background fluorescence and positive populations. […] The data was acquired with an Attune Nxt flow cytometer (Invitrogen) and analyzed by FCS Express 7 Research Edition.

[2] = molecular target: T2, recombinant human TfR (2474-TR, R&D Systems), biotinylated (human, UniProt P02786 89-760, biotinylated with EZ-Link NHS-PEG4-Biotinylation Kit); assay: SPR (Biacore T200), biotinylated human TfR captured on an SA chip as ligand, VHH as analyte, single cycle kinetics, 1:1 binding model
T2 construct: Bought protein; also called immobilized recombinant human TfR; biotinylated human TfR
Text: Phage libraries generated after 4 biweekly immunizations of two different camelids, underwent two rounds of pannings on CHO cell lines overexpressing either cynomolgus TfR in the first round or human TfR in the second round. Output libraries were screened with flow cytometry to find binders to human TfR overexpressing cells (FIG. 1A). […] Binding kinetics to recombinant human and cynomolgus TfR were further characterized with Surface Plasmon Resonance (SPR).
Surface Plasmon Resonance (SPR) was used to measure the interaction between VHHs and human or cynomolgus TfR receptor. Human TfR (2474-TR, R&D Systems) and cynomolgus TfR (90253-C07H, Sino Biological) were biotinylated with the EZ-Link NHS-PEG4-Biotinylation Kit (ThermoFischer Scientific) according to the manufacturer instructions. The binding experiments were performed at 25° C. on a Biacore T200 instrument (Cytiva, Uppsala, Sweden) in HBS-EP+ buffer (10 mM HEPES, 150 mM NaCl, 3 mM EDTA and 0.05% v/v Surfactant P20). Biotinylated human TfR and cynomolgus TfR were captured on a SA sensor chip (Cytiva) at a density of around 250 RU. Increasing concentrations of VHHs were sequentially injected in one single cycle at a flow rate of 30 μl/min. The dissociation was monitored for 20 min. […] A reference flow was used as a control for non-specific binding and refractive index changes. Several buffer blanks were used for double referencing. Binding affinities (KD) and kinetic rate constants (kₒₙ, koff) were derived after fitting the experimental data to the 1:1 binding model with the Biacore T200 Evaluation Software 3.1 using the single cycle kinetic procedure. Each interaction was repeated a least three times.

[3] = molecular target: T3, mouse TfR overexpressed on CHO cells (mouse, UniProt Q62351 1-763); assay: flow cytometry on CHO cells overexpressing mouse TfR (CHO-mTfR), VHH detected with anti-FLAG-iFluor647; median Flag-i647 intensity in total GFP cells
T3 construct: whole, on cells
T3 sequence (Q62351 whole entry): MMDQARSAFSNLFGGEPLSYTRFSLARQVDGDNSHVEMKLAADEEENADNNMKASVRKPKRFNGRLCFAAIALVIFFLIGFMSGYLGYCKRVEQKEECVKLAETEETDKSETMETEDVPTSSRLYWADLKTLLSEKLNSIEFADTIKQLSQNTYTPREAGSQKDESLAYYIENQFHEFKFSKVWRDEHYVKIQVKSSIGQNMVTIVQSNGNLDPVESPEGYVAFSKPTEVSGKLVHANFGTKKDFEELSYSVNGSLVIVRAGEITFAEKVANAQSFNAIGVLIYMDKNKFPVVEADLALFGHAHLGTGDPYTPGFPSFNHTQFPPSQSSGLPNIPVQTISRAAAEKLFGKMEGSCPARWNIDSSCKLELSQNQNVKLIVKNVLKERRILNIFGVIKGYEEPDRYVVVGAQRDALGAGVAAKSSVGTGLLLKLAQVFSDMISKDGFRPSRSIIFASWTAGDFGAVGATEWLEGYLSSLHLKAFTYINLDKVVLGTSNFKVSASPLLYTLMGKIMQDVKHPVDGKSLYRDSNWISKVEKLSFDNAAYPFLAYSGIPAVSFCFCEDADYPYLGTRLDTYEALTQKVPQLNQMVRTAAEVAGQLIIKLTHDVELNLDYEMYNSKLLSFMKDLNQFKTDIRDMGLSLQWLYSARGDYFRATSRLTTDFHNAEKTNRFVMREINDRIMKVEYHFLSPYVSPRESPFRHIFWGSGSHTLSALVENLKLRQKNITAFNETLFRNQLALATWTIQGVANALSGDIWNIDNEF
Procedure: as §1, §2

- EC50 (read off the curve) [1]: ~40 nM
- koff [2]: 0.00592 s⁻¹
- kon [2]: 29000 M⁻¹ s⁻¹
B1: BBB00533 (VHH)
VHH: QVQLQESGGGSVQPGGSLRLSCTASGRTFNYAMGWFRQAPGKNREFVATIDWKDGSSYYLDSVRGRFTIERDDAKNTVYLQMNSLKPEDAAVYTCAVGDGDYCSTYTCAAEVEYDYWGQGTQVTVSS
notes: Lead VHH expressed in E. coli TG1 and purified by IMAC; detected with anti-FLAG antibody in flow cytometry; also called BBB00533 VHH; not shown: C-terminal 3xFlag/6xHis tag from expression vector pBDS119
- binding result [3]: no binding (tested: Log10 Conc 3.5 (about 3000 nM))

- EC50 (read off the curve) [1]: ~8 nM
- koff [2]: 0.0137 s⁻¹
- kon [2]: 15000 M⁻¹ s⁻¹
B2: BBB00515 (VHH)
VHH: QVQLQESGGGLVQAGGSLRLSCAASGSIFSINAMGWYRQAPGKQRELVAVITSGGSTIYADSVKGRFTISRDNAENTVYLQMNSLKPEDTAVYYCNAHVGLKVPTIQELSLGFGSWGQGTQVTVSS
notes: Lead VHH expressed in E. coli TG1 and purified by IMAC; detected with anti-FLAG antibody in flow cytometry; also called BBB00515 VHH; not shown: C-terminal 3xFlag/6xHis tag from expression vector pBDS119
- binding result [3]: no binding (tested: Log10 Conc 3.5 (about 3000 nM))

— US20260274981A1 (VIB VZW, published 2026)
